Literature values in US20040115213A1, “Use of IL-2 receptor antibodies” (priority 2002, published 2004).

Experiments:
[1] = patients given amphotericin-B
[2] = human patients
[3] = monkeys; Hakimi et al.

Molecule | patients experiencing some degree of nephrotoxicity [1] | immunogenicity (HAMA response) [2] | immunogenicity relative to mouse antibody [3]
CC1OC(O[C@H]2/C=C/C=C/C=C/C=C/C=C/C=C/C=C/[C@H](C)[C@@H](O)[C@@H](C)[C@H](C)OC(=O)C[C@H](O)C[C@H](O)CC[C@@H](O)[C@H](O)C[C@H](O)C[C@]3(O)C[C@H](O)C(C(=O)O)[C@H](C2)O3)C(O)C(N)C1O (stereo partly drawn) [amphotericin-B, [1R-(1 R *,3 S *, 5 R *, 6 R *,9 R *,11 R *,15 S *,16 R *,17 R *,18 S *, 19 E,21 E, 23 E,25 E, 27 E,29 E,31 E,33 R *,35 S *,36 R *,37 S *)]-33-[(3-Amino-3,6-dideoxy-(beta)-D-mannopyranosyl)oxy]-1,3,5,6,9,11,17,37-octahydroxy-15,16,18-trimethyl-13-oxo-14,39-dioxabi-cyclo[33.3.1]nonatriaconta-19,21,23,25,27,29,31-heptaene-36-carboxylic acid] | Over 80% |  | 
humanized anti-Tac: humanized monoclonal antibody that binds to the p55 subunit of the human IL-2 receptor, described in U.S. Pat. No. 5,530,101 |  | (essentially) non-immunogenic | reduced immunogenicity relative to mouse anti-Tac
